# Patent US20240294638A1
# Key:
# [1] = biological target: NKG2A on primary human NK cells (human) (UniProt P26715); assay: cell-based or functional assay
# [2] = biological target: human NKG2A M189I / human CD94 heterodimer on CHO-S cells (human) (UniProt Q13241); assay: flow cytometry, CHO-S cells transiently transfected with NKG2A variant and CD94, AF647 goat anti-human IgG secondary (MFI) [cont.), panel monalizumab analogue (IgG4]
# [3] = biological target: human NKG2A and human CD94 expressed on transiently transfected CHO-S cells (human) (UniProt Q13241); assay: as above
# Sequence of human NKG2A and human CD94 expressed on transiently transfected CHO-S cells (human) (chain, as listed by the source, chain 1 of 2): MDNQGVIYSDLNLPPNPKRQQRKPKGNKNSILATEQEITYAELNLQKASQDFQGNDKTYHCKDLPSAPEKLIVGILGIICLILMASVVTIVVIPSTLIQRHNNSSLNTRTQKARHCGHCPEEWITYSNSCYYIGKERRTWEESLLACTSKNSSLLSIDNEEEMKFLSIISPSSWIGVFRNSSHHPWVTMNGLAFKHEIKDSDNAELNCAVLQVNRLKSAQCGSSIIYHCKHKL
# Sequence of human NKG2A and human CD94 expressed on transiently transfected CHO-S cells (human) (Q13241 whole entry, chain 2 of 2): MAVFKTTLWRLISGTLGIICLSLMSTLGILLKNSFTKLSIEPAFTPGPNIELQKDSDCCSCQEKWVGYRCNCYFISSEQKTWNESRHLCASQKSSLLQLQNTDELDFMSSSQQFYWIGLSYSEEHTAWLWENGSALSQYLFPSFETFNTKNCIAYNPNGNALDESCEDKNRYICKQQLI
# I168S (Homo sapiens) = assay: as above
# Sequence of I168S (Homo sapiens) (P26715 whole entry I168S): as the sequence (chain, as listed by the source, chain 1 of 2) above, with I168S counted along it
# [4] = biological target: human NKG2A S167A+I168S+S170L / human CD94 heterodimer on CHO-S cells (human) (UniProt Q13241); assay: as above
# Sequence of human NKG2A S167A+I168S+S170L / human CD94 heterodimer on CHO-S cells (human) (chain, as listed by the source S167A I168S S170L S167A I168S S170L, chain 1 of 2): as the sequence (chain, as listed by the source, chain 1 of 2) above, with S167A, I168S, S170L counted along it
# Sequence of human NKG2A S167A+I168S+S170L / human CD94 heterodimer on CHO-S cells (human) (Q13241 whole entry, chain 2 of 2): as the sequence (Q13241 whole entry, chain 2 of 2) above
# [5] = biological target: human NKG2A S170L / human CD94 heterodimer on CHO-S cells (human) (UniProt Q13241); assay: as above
# Sequence of human NKG2A S170L / human CD94 heterodimer on CHO-S cells (human) (chain, as listed by the source S170L S170L, chain 1 of 2): as the sequence (chain, as listed by the source, chain 1 of 2) above, with S170L counted along it
# Sequence of human NKG2A S170L / human CD94 heterodimer on CHO-S cells (human) (Q13241 whole entry, chain 2 of 2): as the sequence (Q13241 whole entry, chain 2 of 2) above
# [6] = biological target: cynomolgus NKG2C and cynomolgus CD94 expressed on transiently transfected CHO-S cells (cynomolgus); assay: blocking of PE-conjugated HLA-E pentamer binding to transiently transfected CHO-S cells, flow cytometry (percentage binding) [cont.), panel D cNKG2C]
# [7] = biological target: human NKG2A and human CD94 expressed on transiently transfected CHO-S cells (human) (UniProt Q13241); assay: blocking of PE-conjugated HLA-E pentamer binding to transiently transfected CHO-S cells, flow cytometry (percentage binding) [panel A hNKG2A]
# [8] = biological target: cynomolgus NKG2A and cynomolgus CD94 expressed on transiently transfected CHO-S cells (cynomolgus) (UniProt Q68VD2); assay: blocking of PE-conjugated HLA-E pentamer binding to transiently transfected CHO-S cells, flow cytometry (percentage binding) [panel B cNKG2A]
# [9] = biological target: human NKG2A and human CD94 expressed on transiently transfected CHO-S cells (human) (UniProt Q13241); assay: flow cytometry, transiently transfected CHO-S cells, AF647 goat anti-human IgG secondary (MFI) [cont.), panel monalizumab analogue (IgG1-LALA]
# [10] = biological target: cynomolgus NKG2A and cynomolgus CD94 expressed on transiently transfected CHO-S cells (cynomolgus) (UniProt Q68VD2); assay: as above
# [11] = biological target: cynomolgus NKG2C and cynomolgus CD94 expressed on transiently transfected CHO-S cells (cynomolgus); assay: as above
# Sequence of human NKG2A M189I / human CD94 heterodimer on CHO-S cells (human) (chain, as listed by the source M189I M189I, chain 1 of 2): as the sequence (chain, as listed by the source, chain 1 of 2) above, with M189I counted along it
# Sequence of human NKG2A M189I / human CD94 heterodimer on CHO-S cells (human) (Q13241 whole entry, chain 2 of 2): as the sequence (Q13241 whole entry, chain 2 of 2) above
# Sequence of NKG2A on primary human NK cells (human) (P26715 whole entry): as the sequence (chain, as listed by the source, chain 1 of 2) above
substance,measurement,setting,value
Monalizumab Analogue (IgG4-S228P) (antibody),"EC50 (ug/mL) of induced NK cell cytotoxicity, median (n = 6)",[1],0.89 µg/mL
same,EC50 (read off the curve),[2],2 ng/mL
same,EC50 (read off the curve),[3],2 ng/mL
same,EC50 (read off the curve),I168S (Homo sapiens),2 ng/mL
same,EC50 (read off the curve),[4],3 ng/mL
same,EC50 (read off the curve),[5],2 ng/mL
same,IC50 (read off the curve),[6],800 ng/mL
same,IC50 (read off the curve),[7],200 ng/mL
same,IC50 (read off the curve),[8],500 ng/mL
monalizumab analogue (IgG1-LALA) (antibody),EC50 (read off the curve),[9],8 ng/mL
same,EC50 (read off the curve),[10],10 ng/mL
same,EC50 (read off the curve),[11],20 ng/mL
